Experimental data: patent publication US11766480B2, “Multivalent peptoid oligomers, pharmaceutical compositions and methods of using same” (NEW YORK UNIVERSITY, priority 2012, dated 2023)
“Also recorded” adds a separate entry of the source.

What was measured:
AR = biological target: T1, AR (Homo sapiens, UniProt P10275, T878A); experiment: Chromatin immunoprecipitation of AR at the PSA enhancer in LNCaP-abl cells; type: cell-based; settings: R-1881 10 nM alone, positive control
T1 construct: endogenous in cells; host or cells: LNCaP-abl
T1 sequence (P10275 1-920 T878A): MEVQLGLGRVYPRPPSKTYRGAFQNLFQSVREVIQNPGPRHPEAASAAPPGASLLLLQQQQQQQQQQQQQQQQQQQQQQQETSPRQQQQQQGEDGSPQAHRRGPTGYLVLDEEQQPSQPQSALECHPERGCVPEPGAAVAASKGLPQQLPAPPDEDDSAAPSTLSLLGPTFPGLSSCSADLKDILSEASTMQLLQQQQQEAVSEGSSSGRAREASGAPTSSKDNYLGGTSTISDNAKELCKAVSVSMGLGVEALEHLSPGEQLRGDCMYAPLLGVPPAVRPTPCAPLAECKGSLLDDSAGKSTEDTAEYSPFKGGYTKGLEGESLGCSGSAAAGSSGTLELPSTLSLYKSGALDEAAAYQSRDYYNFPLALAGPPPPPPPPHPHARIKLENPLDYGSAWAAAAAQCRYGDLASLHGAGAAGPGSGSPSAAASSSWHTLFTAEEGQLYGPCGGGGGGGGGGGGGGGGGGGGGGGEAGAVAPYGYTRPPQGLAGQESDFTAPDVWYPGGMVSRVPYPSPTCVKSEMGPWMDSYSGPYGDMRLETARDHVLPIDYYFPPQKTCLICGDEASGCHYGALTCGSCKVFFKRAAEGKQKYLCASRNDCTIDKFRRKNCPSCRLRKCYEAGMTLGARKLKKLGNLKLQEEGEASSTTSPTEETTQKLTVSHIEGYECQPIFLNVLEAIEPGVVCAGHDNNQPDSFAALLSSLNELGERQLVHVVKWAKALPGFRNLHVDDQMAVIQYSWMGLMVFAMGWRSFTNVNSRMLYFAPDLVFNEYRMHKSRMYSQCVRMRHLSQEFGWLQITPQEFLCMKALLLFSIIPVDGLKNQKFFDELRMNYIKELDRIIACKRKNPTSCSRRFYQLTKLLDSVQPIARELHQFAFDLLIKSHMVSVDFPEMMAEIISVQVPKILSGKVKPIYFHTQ
Experimental: Following treatment, proteins were double cross-linked with DSP (Pierce) for 20 min and 1% formalin for 10 min. Cells were lysed, and nuclei were collected, lysed in buffer (1% SDS, 50 mM Tris-HCl (pH 8.0), 10 mM EDTA), and sonicated for 12 min (30 s on, 30 s off) utilizing a Bioruptor sonicator (Diagenode, model XL). Sonicated lysates were precleared for 2 h with Protein A/G agarose beads blocked with salmon sperm DNA (Millipore). […] Control ChIP was concurrently performed with the same quantity of normal mouse and rabbit IgG sera. Immunocomplexes were then washed and cross-linking was reversed. DNA was isolated with a PCR purification kit (Qiagen) according to the manufacturer's instructions, and real-time PCR was performed. Relative enrichment of indicated genomic locus was calculated as a percentage of 4% input normalized to IgG. All data were processed using GraphPad Prism.

HEK293 cells = experiment: Cell toxicity assay (CyQUANT cell viability), HEK293; type: cell-based, human; settings: 1 μM, 72 hours
Experimental: (§1) To evaluate the general cell toxicity of oligomers 6 and 7, a cell viability assay was utilized.
(§2) HEK293 and PC3 cells were seeded in triplicate on 96-well plates (Corning) in DMEM and HAM'S—F media supplemented with 10% FBS, 1% L-Gln and 1% PS, respectively. HEK293 and PC3 cells were then treated with conjugates (1 μM and 20 μM, respectively) and allowed to incubate at 37° C. for 72 hours. Following treatment, relative cell viability was measured using the CyQUANT reagent according to the manufacturer's instructions. Fluorescence intensity was quantified as described above. All data were processed using GraphPad Prism.

LNCaP-abl cells = experiment: Cell-cycle distribution by FACS / flow cytometry; type: cell-based, human; settings: 1 μM, 48 h
Experimental: LNCaP-abl cells were grown on 10 cm culture dishes (BD Falcon) to approximately 70% confluence in RPMI media supplemented with 10% charcoal-stripped FBS, 1% L-Gln, and 1% PS. Cells were then treated with conjugate 1 or 2 to a final concentration of 1 μM and allowed to incubate at 37° C. for 48 h. Following treatment, cells were fixed and suspended in 2 mL of 1:3 HBSS:Phosphate-Citrate Buffer (pH 8.0) containing 0.1% Triton X-100. Cells were centrifuged (2,000 rpm for 5 min) and suspended in 1 mL of propidium-iodide solution (1 mg propidium iodine, 10 mg EDTA, 250 μL Igepal, and 2.2 μg μL-1 RNAase in 50 mL of PBS). Cells were then harvested for cell-cycle analysis by filtration (CellTrics, 100 μm) into conical tubes (Falcon) and analyzed by flow cytometry (Becton-Dickinson FACScalibur). All data were analyzed using FlowJo software.
The inventors analyzed cell-cycle distribution of LNCaP-abl cells treated with either oligomer 6 or 7 utilizing fluorescence-activated cell sorting (FACS) analysis. These studies provide a quantitative assessment of normal and apoptotic nuclei along with cell distribution in the G0/G1, S, and G2/M phases of the cell-cycle.

PC3 cells = experiment: Cell toxicity assay (CyQUANT cell viability), PC3; type: cell-based; settings: 20 μM, 72 hours
Experimental: as §1, §2

Row | Compound | AR recruitment to the PSA enhancer (AR) | cytotoxic effects in HEK293 cells (HEK293 cells) | apoptotic cell population (LNCaP-abl cells) | cytotoxic effects in AR-deficient PC3 cells (PC3 cells)
1 | C[C@]1(O)CC[C@H]2[C@@H]3CCC4=CC(=O)CCC4=C3C=C[C@@]21C [Oligomer R-1881] | promoted AR recruitment | – | – | –
2 | COCCN1CC(=O)N(CCCn2cc([C@]3(O)CCC4C5CCC6=CC(=O)CC[C@]6(C)C5CC[C@@]43C)nn2)CC(=O)N(CCOC)CC(=O)N(CCOC)CC(=O)N(CCCn2cc([C@]3(O)CCC4C5CCC6=CC(=O)CC[C@]6(C)C5CC[C@@]43C)nn2)CC(=O)N(CCOC)CC1=O (stereo partly shown) [Oligomer 7] | – | did not exhibit cytotoxic effects; also recorded: cytotoxicity was not observed | no increase in the apoptotic cell population | did not exhibit cytotoxic effects; also recorded: cytotoxicity was not observed
3 | COCCN(CC(N)=O)C(=O)CN(CCOC)C(=O)CN(CCCn1cc([C@]2(O)CCC3C4CCC5=CC(=O)CC[C@]5(C)C4CC[C@@]32C)nn1)C(=O)CN(CCOC)C(=O)CN(CCOC)C(=O)CN(CCOC)C(=O)CN(CCOC)C(=O)CN(CCOC)C(=O)CN(CCOC)C(=O)CN(CCOC)C(=O)CN(CCOC)C(=O)CNCCCn1cc([C@]2(O)CCC3C4CCC5=CC(=O)CC[C@]5(C)C4CC[C@@]32C)nn1 (stereo partly shown) [Oligomer 6] | – | did not exhibit cytotoxic effects; also recorded: cytotoxicity was not observed | no increase in the apoptotic cell population | did not exhibit cytotoxic effects; also recorded: cytotoxicity was not observed
